Measurements from patent publication US20240100176A1 (Eli Lilly, published 2024).

Target: T1, hexahistidine-tagged cynomolgus monkey IL-4Rα extracellular domain (cynomolgus monkey, UniProt P24394 26-231 (human entry))
T1 construct: also called cynomolgus monkey IL-4Rα ECD; not shown: hexahistidine tag
T1 chain: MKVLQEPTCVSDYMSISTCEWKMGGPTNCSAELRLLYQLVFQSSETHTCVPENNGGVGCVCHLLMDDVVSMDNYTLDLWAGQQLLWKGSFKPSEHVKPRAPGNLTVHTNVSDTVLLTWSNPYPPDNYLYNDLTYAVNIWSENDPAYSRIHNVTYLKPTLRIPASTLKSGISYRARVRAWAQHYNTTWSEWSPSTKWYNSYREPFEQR
Assay: competition MSD ELISA (solution equilibrium, 37 °C), apparent KD, mean of 3 experiments
Procedure: Example 3a. […] A 96-well multi-array plate (Meso Scale Diagnostics, Cat. #L15XA-3) was coated at 4° C. overnight with 0.5 μg/mL hexahistidine-tagged human or cynomolgus monkey IL-4Rα ECD in phosphate buffered saline (PBS). Following coating, plates were washed 10 times with 200 μL PBST (PBS with 0.05% Tween® 20) and blocked with 300 μL/well of PBS casein blocking buffer (Pierce, Cat. #37528) at 37° C. for 1 hour. Plates were then washed 10 times as above, and 50 μL of the preincubated antibody:IL-4Rα dilution series was transferred to the wells and incubated at 37° C. with 300 rpm shaking for […]. Plates were washed 10 times with PBST, 50 μL of 1 μg/mL anti-human antibody sulfo-tag 20 (Meso Scale Diagnostics, Cat. #R32AJ-1) was added to the plates for the assay of Table 7a, and anti-Human NHP Kappa Light chain SULFO-TAG 20 (Meso Scale Diagnostics, Cat #D20TF-6) was added to the plates for the assay of Table 7b, and plates were incubated at 37° C. with 300 rpm shaking for 30 minutes. Plates were washed 10 times with PBST, 150 μL/well of 1× Read Buffer T was added to the wells and analyzed on a SECTOR® Imager 6000 (Meso Scale Diagnostics) 15 min after buffer addition. The apparent KD is determined by fitting a sigmoidal curve to the electrochemiluminescence (ECL) response vs. log (soluble IL-4Rα concentration) using GraphPad Prism 9. Data is graphed with normalized ECL values.

Kd: 0.0458 nM
B1: anti-human IL-4Rα Ab1 GC conjugate of Example 1b (n=4) (antibody, human IgG4 S228P, kappa)
heavy: QVQLVESGGGLVQPGGSLRLSCVASGFTFSHSSMNWVRQAPGKGLEWVSYISRATGAVYYADSVKGRFTISRDNAKNSLYLQMNSLRDEDTAVYYCAREPVFDYWGQGTLVTVSSASTKGPCVFPLAPCSRSTSESTAALGCLVKDYFPEPVTVSWNSGALTSGVHTFPAVLQSSGLYSLSSVVTVPSSSLGTKTYTCNVDHKPSNTKVDKRVESKYGPPCPPCPAPEFLGGPSVFLFPPKPKDTLMISRTPEVTCVVVDVSQEDPEVKFNWYVDGVEVHNAKTKPREEQFNSTYRVVSVLTVLHQDWLNGKEYKCKVSNKGLPSSIEKTISKAKGQPREPQVYTLPPSREEMTKNQVSLTCLVKGFYPSDICVEWESNGQPENNYKTTPPVLDSDGSFFLYSRLTVDKSRWQQGNVFSCSVMHEALHNHYTQKSLSLSLG
light: DIQMTQSPSAMSASVGDRVTITCRASQDISNYLAWFQQKPGKVPTRLIYAASSLQSGVPSRFSGSGSGTEFTLTISSLQPEDFATYYCLQWSSYPRTFGQGTKVEIKRTVAAPSVFIFPPSDEQLKSGTASVVCLLNNFYPREAKVQWKVDNALQSGNSQESVTEQDSKDSTYSLSSTLTLSKADYEKHKVYACEVTHQGLSSPVTKSFNRGEC
modifications: glucocorticoid receptor agonist payload-linker (GC-L, Preparation 8) conjugated to the engineered cysteines at the 124 and 378 position of the heavy chain (EU numbering); n is 4 (average DAR 4.17 by RP-HPLC, 3.85 by TOF MS)
